According to paper PMC5509376 (PLoS Pathogens, 2017):

Biological target: T1, VPS10P domain of sortilin fused with GST (mouse, UniProt Q6PHU5 76-750)
T1 construct: also called GST-VPS10P; GST-tagged VPS10P domain of sortilin
T1 sequence (looked up): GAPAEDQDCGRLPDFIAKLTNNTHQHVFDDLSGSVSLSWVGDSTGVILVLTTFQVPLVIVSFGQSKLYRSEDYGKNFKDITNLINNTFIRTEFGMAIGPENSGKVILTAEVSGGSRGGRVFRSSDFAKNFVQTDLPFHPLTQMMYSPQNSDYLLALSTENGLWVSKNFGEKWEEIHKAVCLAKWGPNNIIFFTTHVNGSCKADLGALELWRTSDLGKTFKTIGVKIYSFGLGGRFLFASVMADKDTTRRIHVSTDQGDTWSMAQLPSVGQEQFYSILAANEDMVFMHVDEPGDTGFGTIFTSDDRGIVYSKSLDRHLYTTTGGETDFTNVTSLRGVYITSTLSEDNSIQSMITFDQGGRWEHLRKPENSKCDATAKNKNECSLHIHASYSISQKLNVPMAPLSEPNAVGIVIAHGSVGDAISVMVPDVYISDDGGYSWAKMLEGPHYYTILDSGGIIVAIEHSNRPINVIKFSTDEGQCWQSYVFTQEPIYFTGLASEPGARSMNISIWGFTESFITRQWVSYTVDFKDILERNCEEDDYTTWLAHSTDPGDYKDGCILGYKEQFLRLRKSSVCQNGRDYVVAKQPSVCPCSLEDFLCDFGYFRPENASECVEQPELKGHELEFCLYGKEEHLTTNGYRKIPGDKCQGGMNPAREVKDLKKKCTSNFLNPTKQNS
Test: pull-down
Conditions: both partners purified

B1: His-tagged full-length recombinant PrP (natural protein)
chain: not shown
binding result: binds
